These results are taken from patent US20260069689A1 (Regeneron, published 2026).

As usually defined, the Kd is the free concentration of one partner at which half of the binding sites on the other are occupied at equilibrium, for simple one-to-one binding. Read a high Kd as lower affinity. In general, koff refers to the first-order rate constant of dissociation. As usually defined, the kon is a measure of how fast the partners come together. Higher therefore signals fast association. The term t½ denotes the time in which the quantity being followed falls by half. A lower t½ goes with rapid decline.

Experiment [1] concerns the target T1, SARS-CoV2 Spike ecto foldon Trimer expressed with a C-terminal myc-myc-hexahistidine (SARS-CoV-2, UniProt P0DTC2 14-1213).
T1 construct: extracellular domain
Description: SPR Biacore, mAb captured by anti-hFc, 25C.

The target of experiment [2] is T1, SARS-CoV2 Spike ecto foldon Trimer …. Description: SPR Biacore, mAb captured by anti-hFc, 37C. For orientation: SPR reads the build-up and loss of mass on a sensor chip optically.

B1: mAb14232 (antibody, V domains shown)
VH: QITLKESGPTLVKPTQTLTLTCTFSGFSLSASGVGVGWIRQPPGKALEWLALIYWDDDKRYSPSLKSRLTITKDTSKNQVVLTMTNMDPVDTATYYCAQHKVATIFDYWGQGTLVTVSS
VL: QSALTQPPSASGSPGQSVTISCTATSSDVGNYNYVSWYQQHPGKAPKLMIYEVTKRPSGVPDRFSGSKSGNTASLTVSGLQAEDEADYYCSSYAGSWGVFGGGTKLTVLG
Take B1: in experiment [1], the affinity, expressed as Kd, was 0.195 nM; the koff worked out at 0.000149 s⁻¹; the kon was 763000 M⁻¹ s⁻¹; the t½ was found to be 1.29 h. Besides, in experiment [2], the Kd turned out to be 0.177 nM, the koff is 0.000133 s⁻¹, the kon is 751000 M⁻¹ s⁻¹ and the t½ was determined as 1.45 h.

B2: mAb15158 (antibody, V domains shown)
VH: EVQLVESGGGLVQPGGSLRLSCAASGFSFSSNWMSWVRQAPGKGLEWVGNINQDGSEKYYVDSVEGRFTISRDNAKKSLYLQMNSLRAEDTAVYYCARDLGVLWFGDFVDWGQGALVTVSS
VL: DIQMTQSPSSLSASVGDRVTITCRASQAISNSLAWYQQKPGKAPKLLLYAASTLESGVPSRFSGSGSGTDYTLTISSLQPEDFATYYCLQYYGSPRTFGQGTKVEIKR
In experiment [1], B2 displayed a Kd of 0.153 nM, a koff of 1.4e-05 s⁻¹, a kon of 91500 M⁻¹ s⁻¹ and a t½ of 13.8 h. Moreover, in experiment [2], the affinity, expressed as Kd, was 0.0541 nM; the koff was 4.07e-05 s⁻¹; the kon was 758000 M⁻¹ s⁻¹; the t½ came out at 4.73 h.

B3: mAb14281 (antibody, V domains shown)
VH: QVQLVQSGADVKKPGASVKVSCKTSGYIFTGYYIHWVRQAPGQGLEWMGWINPNSGGTNSAQKFQGRVTMTRDTSISTVYMELSRLRSDDTAVYYCAKSNSFSVLDYNFDYWGQGTLVTVSS
VL: SSELTQDPAVSVALGQTVRITCQGDSLRSYYASWYQQKPGQAPVLVIYDKNNRPSGIPDRFSGSSSGNTASLTITGAQAEDEADYYCNSRDSSRNHLVVFGGGTKLTVLG
As for B3, in experiment [1], the affinity, expressed as Kd, was 0.097 nM; the koff was found to be 8.09e-05 s⁻¹; the kon came to 834000 M⁻¹ s⁻¹; the t½ amounted to 2.38 h. In experiment [2], this molecule yielded a Kd of 0.139 nM, a koff of 0.000116 s⁻¹, a kon of 834000 M⁻¹ s⁻¹ and a t½ of 1.66 h.

B4: mAb14285 (antibody, V domains shown)
VH: QVQLVQSGAEVKKPGASVKVSCKASGYTFTGYFIHWVRQAPGQGLEWMGWISPISGGTNYAQKFQGRVTVTRDTSITTAYMELSRLTSDDTAVYHCAREGGTWKGDFDYWGQGTLVTVSS
VL: QSALTQPASVSGSPGQSITISCTGTSSDVESYNLVSWYQQHPGKAPKLMIYEGSKRPSGVSNRFSGSKSGNTASLTISGLQAEDEADYYCSSYAGSSTWVFGGGTKLTVLG
With B4, in experiment [1], the dissociation constant Kd was 0.017 nM, the off-rate (koff) was 3.98e-05 s⁻¹, the kon worked out at 2.34e+06 M⁻¹ s⁻¹ and the t½ was determined as 4.84 h. Further, in experiment [2], the affinity, expressed as Kd, was 0.0359 nM; the koff amounted to 4.18e-05 s⁻¹; the kon stood at 1.16e+06 M⁻¹ s⁻¹; the t½ worked out at 4.61 h.

B5: mAb14282 (antibody, V domains shown)
VH: QVQLVQSGAEVKKPGASVKVSCKASGYIFTDHYMHWVRQAPGQGLEWMGWINPNSGATNYAQNFQGRVTMTRDTSIITVYMELSRLRSDDTAVYYCARDSSPYMIRYTMDVWGQGTTITVSS
VL: QSALTQPASVSGSPGQSITISCTGTSSDVGSYNLVSWYQQHPGKAPKLMIYELTKRPSGVSNRFSGSKSGNTASLTISGLQAEDEADYYCSSYRGSVTDVVFGGGTKLTVLG
In experiment [1], B5 displayed a Kd of 0.0624 nM, a koff of 0.000133 s⁻¹, a kon of 2.14e+06 M⁻¹ s⁻¹ and a t½ of 1.44 h. Moreover, in experiment [2], the Kd was 0.162 nM, the koff was 0.000171 s⁻¹, the kon worked out at 1.05e+06 M⁻¹ s⁻¹ and the t½ turned out to be 1.13 h.

B6: mAb15159 (antibody, V domains shown)
VH: EVQLVESGGGLVQPGGSLRLSCAASGITVSSNYMTWVRQAPGKGLEWVSLIYSGGSTFYADSVRGRFTISRDNSKNTLYLQMNSLRAEDTAVYYCARDLVVYGMDVWGQGTTVTVSS
VL: DIQLTQSPSSLSASVGDRVTITCRASQGISSYLAWYQQKPGKAPKLLIYAASTLQSGVPSRFSGSGSGTDFTLTISSLQPEDFATYYCQHLNSDPHTFGQGTKLEIKR
In experiment [1], B6 had a Kd of 0.231 nM, a koff of 2.02e-05 s⁻¹, a kon of 87500 M⁻¹ s⁻¹ and a t½ of 9.53 h. In experiment [2], this molecule displayed a Kd of 0.0686 nM, a koff of 3.22e-05 s⁻¹, a kon of 467000 M⁻¹ s⁻¹ and a t½ of 5.99 h.

B7: mAb14234 (antibody, V domains shown)
VH: QVQLVESGGGVVQPGRSLRLSCAASGFTFSSYGIHWVRQAPGKGLEWVAIIWYDGSEKYYADSVKGRFTISRDNSKNTLFLQMNSLEAEDTAVYYCARGPDLLTGYYNYFYYGMDVWGQGTTVTVSS
VL: QSVLTQPPSVSGAPGQRVTISCTGSSSNIGIGYDVHWYQQLPGTVPKLLIYGNTNRPSGVPDRFSGSKSGTSASLAITGLQAEDEADYYCQSYDSSLSSYVFGTGTKVTVLG
In experiment [1], B7 had a Kd of 0.0775 nM, a koff of 5.48e-05 s⁻¹, a kon of 707000 M⁻¹ s⁻¹ and a t½ of 3.51 h. In addition, in experiment [2], binding was characterised by a dissociation constant (Kd) of 0.102 nM, the koff came to 7.16e-05 s⁻¹, the kon is 699000 M⁻¹ s⁻¹ and the t½ was determined as 2.69 h.

B8: mAb14230 (antibody, V domains shown)
VH: EVQLVESGGGLIQPGRSLRLSCAASGFTFDDYAMHWVRQAPGKGLEWVSGISWNSVSIDYADSVKGRFTISRDNAKNSLYLQMTSLTVEDTALYYCAKAFGYETLTGSDYFAYWGPGTLVTVSS
VL: EIVLTQSPGTLSLSPGERATLSCRASQTVISTYLAWYQQKPGQSPRLLIYGASSRATGIPDRFSGSGSGTDFTLTISRLEPEDFAVYYCQQYGSSPQLTFGGGTKVEIKR
Turning to B8, in experiment [1], the affinity, expressed as Kd, was 0.0404 nM; the koff was determined as 6.09e-05 s⁻¹; the kon is 1.51e+06 M⁻¹ s⁻¹; the t½ came to 3.16 h. In experiment [2], this molecule displayed a Kd of 0.0991 nM, a koff of 8.97e-05 s⁻¹, a kon of 906000 M⁻¹ s⁻¹ and a t½ of 2.14 h.

B9: mAb15160 (antibody, V domains shown)
VH: EVQLVESGGGLVQPGGSLRLSCSASGFTFSRYAMYWVRQAPGKGLEYVSAISSDGGSTYDADSVKGRFTISRANSKNTLYLQMSSLRAEDTAVYYCVKGLRELLYYYYGMDVWGQGTTVTVSS
VL: DIQMTQSPSSLSASVGDRVTITCRAGQSISSFLNWYQQKPGKAPKLLIYAASSLQSGVPSRFSGSGSGTDFTLTISSLQPEDFATYYCQQSYITPFTFGPGTKVDIKR
B9: in experiment [1], the Kd amounted to 0.102 nM, the koff was found to be 3.1e-05 s⁻¹, the kon was found to be 304000 M⁻¹ s⁻¹ and the t½ was 6.21 h. For the same molecule, in experiment [2], binding was characterised by a dissociation constant (Kd) of 0.132 nM, the koff turned out to be 0.000167 s⁻¹, the kon is 1.26e+06 M⁻¹ s⁻¹ and the t½ amounted to 1.15 h.

B10: mAb15157 (antibody, V domains shown)
VH: EVQLVESGGALVQPGGSLRLSCAASGFPFTIYAMTWVRQAPGKGLEWVSVITGSGDSTYYADSVKGRFTISRDNSKNTLYLQMNSLRAEDTAVYYCVKTGEGFFYYYYGMDVWGQGTTVTVSS
VL: QSVLTQPPSVSAAPGQKVTISCSGSSSNIGNSYISWYQQLPGTAPKLLIYVNNKRPSGIPDRFSGSKSGTSATLGITGLQTGDEADYYCGTWDSSLSAGVFGSGTKVTVLG
In experiment [1], B10 displayed a Kd of 0.308 nM, a koff of 9.28e-05 s⁻¹, a kon of 302000 M⁻¹ s⁻¹ and a t½ of 2.08 h. In experiment [2], the Kd was 0.141 nM, the koff was determined as 0.00024 s⁻¹, the kon was determined as 1.7e+06 M⁻¹ s⁻¹ and the t½ was found to be 0.803 h.

B11: mAb14292 (antibody, V domains shown)
VH: EVQLVESGGGLVQPGGSLRLSCVASGFAFSTYEMNWVRQAPGKGLEWVSYISSSGSTIYYADSVKGRLTISRDNVKNSLYLQMNSLRVEDTAIYYCARDAIRNNDILTDPATFDPWGQGTLVTVSS
VL: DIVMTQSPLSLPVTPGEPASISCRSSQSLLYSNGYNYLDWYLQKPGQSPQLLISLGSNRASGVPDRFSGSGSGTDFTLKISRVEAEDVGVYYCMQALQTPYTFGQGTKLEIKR
B11: in experiment [1], binding was put at a Kd of 7.21 nM, the koff was 0.00421 s⁻¹, the kon stood at 584000 M⁻¹ s⁻¹ and the t½ is 0.045 h. Moreover, in experiment [2], binding was put at a Kd of 11.5 nM, the koff amounted to 0.00682 s⁻¹, the kon stood at 592000 M⁻¹ s⁻¹ and the t½ was 0.0283 h.

B12: mAb15156 (antibody, V domains shown)
VH: QLQLQESGPGLVKSSETLSLTCTVSASITGSTYYWGWIRQPPGKGLEWIGSIYYSGTTYYKASLKSRVTISVDTSKNQFSLKLTSVTVADTAVYYCVSHLLGNYHKYGMDVWGQGTTVTVSS
VL: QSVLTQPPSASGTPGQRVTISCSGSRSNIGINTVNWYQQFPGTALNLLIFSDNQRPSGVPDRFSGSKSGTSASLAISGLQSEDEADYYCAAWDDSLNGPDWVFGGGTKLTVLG
In experiment [1], B12 registered a Kd of 0.193 nM, a koff of 6.61e-05 s⁻¹, a kon of 342000 M⁻¹ s⁻¹ and a t½ of 2.91 h. Moreover, in experiment [2], the Kd worked out at 0.112 nM, the koff was 0.000212 s⁻¹, the kon amounted to 1.89e+06 M⁻¹ s⁻¹ and the t½ is 0.908 h.

B13: mAb14256 (antibody, V domains shown)
VH: QVQLQESGPGLVKPSETLSLTCTVSGGSISSHYWSWIRQPPGKGLEWIGYIYYSGSSNYNPSLKSRVTISVDTSKNQFSLKLNSVTAADTAVYYCARHYDILTGFDWFDPWGQGTLVTVSS
VL: QSVLTQPPSVSGAPGQRVTISCTGSSSNIGTHYDVHWYQQLPGTAPKLLIYGNSNRPSGVPDRFSGSKSGTSASLAITGLQAEDEADYYCQSFDNSLTAPYVFGTGTKVTVLG
In experiment [1], B13 gave a Kd of 0.129 nM, a koff of 0.000189 s⁻¹, an on-rate (kon) of 1.47e+06 M⁻¹ s⁻¹ and a t½ of 1.02 h. In experiment [2], this molecule registered a Kd of 0.304 nM, a koff of 0.000242 s⁻¹, a kon of 796000 M⁻¹ s⁻¹ and a t½ of 0.795 h.

B14: mAb14280 (antibody, V domains shown)
VH: QVQLVQSGAEVKKPGASVRVSCKASGYTFTGNYIHWVRQAPGQGLEWMAWINPNSGGKNYAQKFQGRVTLTRDTSVNTAYMELSRLRSDDTAMYYCARDVNYNILTGPGGLWGQGTLVTVSS
VL: QSALTQPPSASGSPGQSVTISCTGTSSDVGGYNFVSWYQQHPGKAPKLMIYEVSKRPSGVPDRFSGSKSGNTASLTVSGLQAEDEADYYCSSYAGSNNFVFGTGTKVTVLG
In experiment [1], B14 gave a Kd of 0.0136 nM, a koff of 2.69e-05 s⁻¹, a kon of 1.99e+06 M⁻¹ s⁻¹ and a t½ of 7.14 h. In experiment [2], the Kd came to 0.029 nM, the koff stood at 2.86e-05 s⁻¹, the kon is 985000 M⁻¹ s⁻¹ and the t½ worked out at 6.73 h.
